Experiments:
[1] = biological target: HLA-A*02:01_… (HLA-PEPTIDE target G8), soluble (human, enzymatically biotinylated (BirA) for screening and BLI); test: BLI (Octet), biotinylated pHLA on streptavidin sensor, Fab in solution, 1:1 model
[2] = biological target: HLA-B*35:01_… (HLA-PEPTIDE target G5), soluble (human, enzymatically biotinylated (BirA)); test: scFv PPE ELISA
[3] = biological target: HLA-A*01:01_… (HLA-PEPTIDE target G10), soluble (human, enzymatically biotinylated (BirA)); test: BLI (Octet), biotinylated pHLA on streptavidin sensor, Fab in solution, 1:1 model

B1: Fab clone R3G8-P2E04 (Fab, V domains shown)
VH: QVQLVQSGAEVKKPGSSVKVSCKASGGTFSSYGVSWVRQAPGQGLEWMGWISPYSGNTDYAQKFQGRVTITADESTSTAYMELSSLRSEDTAVYYCARGLYYMDVWGKGTTVTVSS
VL: DIQMTQSPSSLSASVGDRVTITCRASQSISSWLAWYQQKPGKAPKLLIYDASNLETGVPSRFSGSGSGTDFTLTISSLQPEDFATYYCQQSYSTPLTFGGGTKLEIK
notes: Fab made in HEK293
B1 showed a Kd [1] of 286 nM, a koff [1] of 0.0789 s⁻¹ and a kon [1] of 545000 M⁻¹ s⁻¹.

B2: Fab clone R3G8-P2C10 (Fab, V domains shown)
VH: QVQLVQSGAEVKKPGASVKVSCKASGYTFTSYYMHWVRQAPGQGLEWMGWINPYSGGTNYAQKFQGRVTMTRDTSTSTVYMELSSLRSEDTAVYYCAKGGIYYGSGSYPSWGQGTLVTVSS
VL: DIQMTQSPSSLSASVGDRVTITCRASQDVSTWLAWYQQKPGKAPKLLIYAASSLQSGVPSRFSGSGSGTDFTLTISSLQPEDFATYYCQQSHSTPQTFGQGTKVEIK
notes: Fab made in HEK293
For B2, the Kd [1] was 17.7 nM, the koff [1] was 0.0013 s⁻¹ and the kon [1] was 75000 M⁻¹ s⁻¹.

B3: scFv G5-P1B12 (scFv, V domains shown)
VH: EVQLLESGGGLVQPGGSLRLSCAASGFTFSNSDMNWVRQAPGKGLEWVASISSSGGYINYADSVKGRFTISRDNSKNTLYLQMNSLRAEDTAVYYCAKVNWNDGPYFDYWGQGTLVTVSS
VL: DIQMTQSPSSLSASVGDRVTITCRASQSISSWLAWYQQKPGKAPKLLIYAASSLQSGVPSRFSGSGSGTDFTLTISSLQPEDFATYYCQQANSFPLTFGGGTKVEIK
notes: scFv
For B3, the “fold selective binding, target pHLA vs minipool of negative control pHLAs” value (“fold selective binding, target pHLA” below) [2] was ≥ 3 fold.

B4: Fab clone G8-P1C11 (Fab, V domains shown)
VH: QVQLVQSGAEVKKPGASVKVSCKASGGTLSSYPINWVRQAPGQGLEWMGWISTYSGHADYAQKLQGRVTMTRDTSTSTVYMELSSLRSEDTAVYYCARSYDYGDYLNFDYWGQGTLVTVSS
VL: DIQMTQSPSSLSASVGDRVTITCQASQDISNYLNWYQQKPGKAPKLLIYAASSLQSGVPSRFSGSGSGTDFTLTISSLQPEDFATYYCQQSYSIPPTFGGGTKVDIK
notes: Fab made in HEK293; also called R3G8-P1C11
Binder B4 has a Kd [1] of 178 nM, a koff [1] of 0.0338 s⁻¹ and a kon [1] of 190000 M⁻¹ s⁻¹.

B5: scFv G5-P1C12 (scFv, V domains shown)
VH: QVQLVQSGAEVKKPGSSVKVSCKASGGTFSNFGVSWLRQAPGQGLEWMGGIIPILGTANYAQKFQGRVTITADESTSTAYMELSSLRSEDTAVYYCATPTNSGYYGPYYYYGMDVWGQGTTVTVSS
VL: DIQMTQSPSSLSASVGDRVTITCRASQSISSWLAWYQQKPGKAPKLLIYAASTLQSGVPSRFSGSGSGTDFTLTISSLQPEDFATYYCQQSYSIPLTFGGGTKVEIK
notes: scFv
In the case of B5, the “fold selective binding, target pHLA” value [2] is reported as ≥ 3 fold.

B6: scFv G5-P3G08 (scFv, V domains shown)
VH: QVQLVQSGAEVKKPGASVKVSCKASGYIFRNYPMHWVRQAPGQGLEWMGWINPDSGGTKYAQKFQGRVTMTRDTSTSTVYMELSSLRSEDTAVYYCARDNGVGVDYWGQGTLVTVSS
VL: DIQMTQSPSSLSASVGDRVTITCRASQGISNYLAWYQQKPGKAPKLLIYAASSLQSGVPSRFSGSGSGTDFTLTISSLQPEDFATYYCQQSYITPYTFGQGTKLEIK
notes: scFv
With B6 the “fold selective binding, target pHLA” value [2] was ≥ 3 fold.

B7: scFv G5-P4B02 (scFv, V domains shown)
VH: QVQLVQSGAEVKKPGASVKVSCKASGYTFTGYYMHWVRQAPGQGLEWMGWMNPNIGNTGYAQKFQGRVTMTRDTSTSTVYMELSSLRSEDTAVYYCARGIADSGSYYGNGRDYYYGMDVWGQGTTVTVSS
VL: DIVMTQSPDSLAVSLGERATINCKTSQSVLYRPNNENYLAWYQQKPGQPPKLLIYQASIREPGVPDRFSGSGSGTDFTLTISSLQAEDVAVYYCQQYYTTPYTFGQGTKLEIK
notes: scFv
B7 was tested, and the “fold selective binding, target pHLA” value [2] was ≥ 3 fold.

B8: Fab clone R3G10-P4E07 (Fab, V domains shown)
VH: QVQLVQSGAEVKKPGSSVKVSCKASGYTFTGYYMHWVRQAPGQGLEWMGRISPSDGSTTYAPKFQGRVTITADESTSTAYMELSSLRSEDTAVYYCARDMGDAFDIWGQGTTVTVSS
VL: not shown
notes: Fab made in HEK293
B8 was tested, and the Kd [3] was 428 nM, the koff [3] was 0.111 s⁻¹ and the kon [3] was 477000 M⁻¹ s⁻¹.

B9: scFv G5-P1-E05 (scFv, V domains shown)
VH: QVQLVQSGAEVKKPGASVKVSCKASGYTFTSYNMHWVRQAPGQGLEWMGWINPNSGGTNYAQKFQGRVTMTRDTSTSTVYMELSSLRSEDTAVYYCARDVMDVWGQGTTVTVSS
VL: DIQMTQSPSSLSASVGDRVTITCRASQGISNYLNWYQQKPGKAPKLLIYYASSLQSGVPSRFSGSGSGTDFTLTISSLQPEDFATYYCQQTYMMPYTFGQGTKVEIK
notes: scFv
B9 was tested, and the “fold selective binding, target pHLA” value [2] was ≥ 3 fold.

B10: scFv G5-P3G01 (scFv, V domains shown)
VH: QVQLVQSGAEVKKPGASVKVSCKASGGTFSGYLVSWVRQAPGQGLEWMGWINPNSGGTNTAQKFQGRVTMTRDTSTSTVYMELSSLRSEDTAVYYCAREGYGMDVWGQGTTVTVSS
VL: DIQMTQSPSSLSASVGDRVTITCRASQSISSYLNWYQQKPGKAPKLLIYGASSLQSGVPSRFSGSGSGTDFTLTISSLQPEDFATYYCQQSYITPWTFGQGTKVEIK
In the case of B10, the “fold selective binding, target pHLA” value [2] is reported as ≥ 3 fold.

B11: Fab clone R3G10-P1B07 (Fab, V domains shown)
VH: QVQLVQSGAEVKKPGASVKVSCKASGYTFTSYYMHWVRQAPGQGLEWMGIIHPGGGTTSYAQKFQGRVTMTRDTSTSTVYMELSSLRSEDTAVYYCARDKVYGDGFDPWGQGTLVTVSS
VL: DIQMTQSPSSLSASVGDRVTITCRASQSISRWLAWYQQKPGKAPKLLIFDASRLQSGVPSRFSGSGSGTDFTLTISSLQPEDFATYYCQQAEAFPYTFGQGTKVEIK
notes: Fab made in HEK293
With B11 the Kd [3] was 37.5 nM, the koff [3] was 0.00615 s⁻¹ and the kon [3] was 165000 M⁻¹ s⁻¹.
